Results reported in the supplement of paper PMC11246515.
± gives the standard deviation of the averaged measurements.

Assay: total protein half-life in vivo (active degradation + dilution); higher = more stable protein
[1] = E. coli NCM3722 delta-hslV, growth: N-lim chemostat, doubling time 6 h
[2] = E. coli NCM3722 delta-lon, growth: N-lim chemostat, doubling time 6 h
[3] = E. coli NCM3722 delta-smpB, growth: N-lim chemostat, doubling time 6 h
[4] = wild type E. coli NCM3722, growth: C-lim chemostat, doubling time 3 h
[5] = wild type E. coli NCM3722, growth: C-lim chemostat, doubling time 6 h
[6] = wild type E. coli NCM3722, growth: C-lim chemostat, doubling time 12 h
[7] = wild type E. coli NCM3722, growth: N-lim chemostat, doubling time 6 h
[8] = wild type E. coli NCM3722, growth: N-lim chemostat, doubling time 12 h
[9] = E. coli NCM3722 delta-clpP delta-lon delta-hslV, growth: N-lim chemostat, doubling time 6 h
[10] = E. coli NCM3722 delta-clpP, growth: N-lim chemostat, doubling time 6 h
[11] = wild type E. coli NCM3722, growth: P-lim chemostat, doubling time 6 h
[12] = wild type E. coli NCM3722, growth: P-lim chemostat, doubling time 12 h

| Sequence | total protein half-life in vivo [1] [h] | total protein half-life in vivo [2] [h] | total protein half-life in vivo [3] [h] | total protein half-life in vivo [4] [h] | total protein half-life in vivo [5] [h] | total protein half-life in vivo [6] [h] | total protein half-life in vivo [7] [h] | total protein half-life in vivo [8] [h] | total protein half-life in vivo [9] [h] | total protein half-life in vivo [10] [h] | total protein half-life in vivo [11] [h] | total protein half-life in vivo [12] [h] |
| --- | --- | --- | --- | --- | --- | --- | --- | --- | --- | --- | --- | --- |
| MSGLPLISRRRLLTAMALSPLLWQMNTAHAAAIDPNRIVALEWLPVELLLALGIVPYGVADTINYRLWVSEPPLPDSVIDVGLRTEPNLELLTEMKPSFMVWSAGYGPSPEMLARIAPGRGFNFSDGKQPLAMARKSLTEMADLLNLQSAAETHLAQYEDFIRSMKPRFVKRGARPLLLTTLIDPRHMLVFGPNSLFQEILDEYGIPNAWQGETNFWGSTAVSIDRLAAYKDVDVLCFDHDNSKDMDALMATPLWQAMPFVRAGRFQRVPAVWFYGATLSAMHFVRVLDNAIGGKA | 6.62 | 6.51 ± 1.4 | 3.92 ± 1.1 | 2.71 | 5.86 | 12.2 | 5.85 | 12 ± 1.3 | – | – | – | – |
| MAQRIFTLILLLCSTSVFAGLFDAPGRSQFVPADQAFAFDFQQNQHDLNLTWQIKDGYYLYRKQIRITPEHAKIADVQLPQGVWHEDEFYGKSEIYRDRLTLPVTINQASAGATLTVTYQGCADAGFCYPPETKTVPLSEVVANNAAPQPVSVPQQEQPTAQLPFSALWALLIGIGIAFTPCVLPMYPLISGIVLGGKQRLSTARALLLTFIYVQGMALTYTALGLVVAAAGLQFQAALQHPYVLIGLAIVFTLLAMSMFGLFTLQLPSSLQTRLTLMSNRQQGGSPGGVFVMGAIAGLICSPCTTAPLSAILLYIAQSGNMWLGGGTLYLYALGMGLPLMLITVFGNRLLPKSGPWMEQVKTAFGFVILALPVFLLERVIGDVWGLRLWSALGVAFFGWAFITSLQAKRGWMRIVQIILLAAALVSVRPLQDWAFGATHTAQTQTHLNFTQIKTVDELNQALVEAKGKPVMLDLYADWCVACKEFEKYTFSDPQVQKALADTVLLQANVTANDAQDVALLKHLNVLGLPTILFFDGQGQEHPQARVTGFMDAETFSAHLRDRQP | 5.61 ± 0.96 | 6.37 ± 0.69 | 5.76 ± 0.13 | – | 5.22 ± 0.15 | 13.2 ± 1 | 6.08 ± 0.72 | 11.9 ± 0.37 | 6.33 ± 0.17 | 6.16 ± 0.66 | 5.82 ± 0.19 | 12.35 ± 0.1 |
| MSLINTKIKPFKNQAFKNGEFIEITEKDTEGRWSVFFFYPADFTFVCPTELGDVADHYEELQKLGVDVYAVSTDTHFTHKAWHSSSETIAKIKYAMIGDPTGALTRNFDNMREDEGLADRATFVVDPQGIIQAIEVTAEGIGRDASDLLRKIKAAQYVASHPGEVCPAKWKEGEATLAPSLDLVGKI [P0AE08] | 1.91 ± 0.12 | 2.26 ± 0.079 | 2.119 ± 0.01 | 2.89 ± 0.21 | 5.05 ± 0.11 | 7.67 ± 0.6 | 2.03 ± 0.16 | 2.6085 ± 0.0015 | 2.82 ± 0.23 | 2.22 ± 0.28 | 5.49 ± 0.38 | 9.52 ± 0.29 |
| MDHRLLEIIACPVCNGKLWYNQEKQELICKLDNLAFPLRDGIPVLLETEARVLTADESKS [P0AAZ7] | – | 4.19 ± 0.043 | 4.65 ± 1.2 | 1.64 ± 0.1 | 4.73 ± 0.12 | 8.88 ± 1.5 | 3.05 ± 0.11 | 6.3 ± 0.69 | > 8 | 5.82 ± 0.15 | 3.69 ± 0.26 | 7.87 ± 0.7 |
| MKPLLDVLMILDALEKEGSFAAASAKLYKTPSALSYTVHKLESDLNIQLLDRSGHRAKFTRTGKMLLEKGREVLHTVRELEKQAIKLHEGWENELVIGVDDTFPFSLLAPLIEAFYQHHSVTRLKFINGVLGGSWDALTQGRADIIVGAMHEPPSSSEFGFSRLGDLEQVFAVAPHHPLALEEEPLNRRIIKRYRAIVVGDTAQAGASTASQLLDEQEAITVFDFKTKLELQISGLGCGYLPRYLAQRFLDSGALIEKKVVAQTLFEPVWIGWNEQTAGLASGWWRDEILANSAIAGVYAKSDDGKSAI | – | – | – | – | – | – | – | – | 5.91 ± 0.24 | – | – | – |
| MAAINTKVKKAVIPVAGLGTRMLPATKAIPKEMLPLVDKPLIQYVVNECIAAGITEIVLVTHSSKNSIENHFDTSFELEAMLEKRVKRQLLDEVQSICPPHVTIMQVRQGLAKGLGHAVLCAHPVVGDEPVAVILPDVILDEYESDLSQDNLAEMIRRFDETGHSQIMVEPVADVTAYGVVDCKGVELAPGESVPMVGVVEKPKADVAPSNLAIVGRYVLSADIWPLLAKTPPGAGDEIQLTDAIDMLIEKETVEAYHMKGKSHDCGNKLGYMQAFVEYGIRHNTLGTEFKAWLEEEMGIKK [P0AEP3] | 4.91 ± 0.62 | 5.41 ± 0.14 | 4.728 ± 0.0092 | – | 5.71 ± 0.23 | 10.8 ± 1.1 | 4.65 ± 0.13 | 7.63 ± 0.25 | 4.77 ± 0.41 | 4.87 ± 0.81 | 5.72 ± 0.074 | 11.6 ± 0.14 |
| MTVTRPRAERGAFPPGTEHYGRSLLGAPLIWFPAPAASRESGLILAGTHGDENSSVVTLSCALRTLTPSLRRHHVVLCVNPDGCQLGLRANANGVDLNRNFPAANWKEGETVYRWNSAAEERDVVLLTGDKPGSEPETQALCQLIHRIQPAWVVSFHDPLACIEDPRHSELGEWLAQAFELPLVTSVGYETPGSFGSWCADLNLHCITAEFPPISSDEASEKYLFAMANLLRWHPKDAIRPS [P0ACV6] | 3.78 ± 0.16 | 4.19 ± 0.46 | 3.94 ± 0.21 | 3.03 ± 0.27 | 4.71 ± 0.84 | 9.23 ± 0.26 | 3.66 ± 0.29 | 6.85 ± 0.2 | 4.35 ± 0.052 | 4.17 ± 0.28 | 4.71 ± 0.42 | 10.7 ± 0.85 |
| MSNAQEAVKTRHKETSLIFPVLALVVLFLWGSSQTLPVVIAINLLALIGILSSAFSVVRHADVLAHRLGEPYGSLILSLSVVILEVSLISALMATGDAAPTLMRDTLYSIIMIVTGGLVGFSLLLGGRKFATQYMNLFGIKQYLIALFPLAIIVLVFPMALPAANFSTGQALLVALISAAMYGVFLLIQTKTHQSLFVYEHEDDSDDDDPHHGKPSAHSSLWHAIWLIIHLIAVIAVTKMNASSLETLLDSMNAPVAFTGFLVALLILSPEGLGALKAVLNNQVQRAMNLFFGSVLATISLTVPVVTLIAFMTGNELQFALGAPEMVVMVASLVLCHISFSTGRTNVLNGAAHLALFAAYLMTIFA | – | – | 6.69 | – | – | > 16 | – | – | – | > 8 | 6.87 | – |
